The source of these data is paper PMC3217859, “Protein phosphatase 2a (PP2A) binds within the oligomerization domain of striatin and regulates the phosphorylation and activation of the mammalian Ste20-Like kinase Mst3” (BMC Biochemistry, 2011).

Common to all, as to experiment: co-IP; anti-HA immunoprecipitates (12CA5 with protein A-Sepharose, or F7 anti-HA-agarose when probing for Mst3 or Mst4; 1.5 h, 4°C) of lysates (1% Nonidet P-40, 0.135 M NaCl, 10% glycerol, 20 mM Tris pH 8.0) of HEK293 cells transfected with HA-striatins; endogenous partners by immunoblot, partner/HA-striatin ratio by chemilumimager against wild type; 50 mM NaF and 100 nM okadaic acid in the lysis buffer in the …
Holding throughout (conditions): partners not purified
For orientation: Immunoblotting shows a protein as a band on a membrane.

In experiment [1] the target is T1, HA-tagged Δ(70-116) striatin (human, UniProt O43815 1-780, Δ(70-116)).
T1 construct: also called coiled-coil deletion mutant; source: HEK293, transfected, in lysate; not shown: HA, N-terminal, kept
T1 sequence (looked up): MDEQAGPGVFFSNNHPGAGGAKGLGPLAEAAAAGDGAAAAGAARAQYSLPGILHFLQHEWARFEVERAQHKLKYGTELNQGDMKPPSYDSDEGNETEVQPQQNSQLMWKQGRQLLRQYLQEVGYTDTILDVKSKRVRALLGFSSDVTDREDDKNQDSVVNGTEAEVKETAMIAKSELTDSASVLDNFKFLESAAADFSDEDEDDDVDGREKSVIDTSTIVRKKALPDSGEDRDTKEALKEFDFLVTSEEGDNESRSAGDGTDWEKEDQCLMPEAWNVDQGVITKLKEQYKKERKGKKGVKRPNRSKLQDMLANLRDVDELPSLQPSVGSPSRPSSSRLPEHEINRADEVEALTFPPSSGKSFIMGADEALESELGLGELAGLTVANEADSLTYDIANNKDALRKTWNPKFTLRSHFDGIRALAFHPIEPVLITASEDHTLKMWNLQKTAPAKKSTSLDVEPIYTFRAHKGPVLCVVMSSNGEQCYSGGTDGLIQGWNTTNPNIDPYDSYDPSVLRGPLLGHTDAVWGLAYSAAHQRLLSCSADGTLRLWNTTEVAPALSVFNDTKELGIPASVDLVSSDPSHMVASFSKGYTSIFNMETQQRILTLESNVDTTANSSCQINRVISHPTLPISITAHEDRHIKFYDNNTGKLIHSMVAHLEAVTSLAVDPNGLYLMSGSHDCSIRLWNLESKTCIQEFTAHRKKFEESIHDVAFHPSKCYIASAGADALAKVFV

Experiment [2] deals with T2, HA-tagged Δ(3-309) striatin (human, UniProt O43815 1-780, Δ(3-309)).
T2 construct: source: HEK293, transfected, in lysate; not shown: HA, N-terminal, kept
T2 sequence (looked up): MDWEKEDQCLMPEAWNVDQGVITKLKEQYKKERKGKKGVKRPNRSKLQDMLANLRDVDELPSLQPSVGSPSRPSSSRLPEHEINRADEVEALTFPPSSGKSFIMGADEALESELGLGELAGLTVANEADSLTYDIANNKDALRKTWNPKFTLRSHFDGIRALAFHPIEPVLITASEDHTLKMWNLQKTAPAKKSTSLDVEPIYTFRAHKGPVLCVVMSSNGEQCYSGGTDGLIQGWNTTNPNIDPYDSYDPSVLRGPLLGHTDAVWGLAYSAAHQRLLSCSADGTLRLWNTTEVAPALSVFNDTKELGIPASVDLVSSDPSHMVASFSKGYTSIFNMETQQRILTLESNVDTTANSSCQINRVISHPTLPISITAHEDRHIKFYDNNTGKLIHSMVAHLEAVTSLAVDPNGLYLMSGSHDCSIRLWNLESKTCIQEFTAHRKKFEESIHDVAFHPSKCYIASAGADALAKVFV

The target in experiment [3] is T3, HA-tagged Δ(227-309) striatin (human, UniProt O43815 1-780, Δ(227-309)).
T3 construct: source: HEK293, transfected, in lysate; not shown: HA, N-terminal, kept
T3 sequence (looked up): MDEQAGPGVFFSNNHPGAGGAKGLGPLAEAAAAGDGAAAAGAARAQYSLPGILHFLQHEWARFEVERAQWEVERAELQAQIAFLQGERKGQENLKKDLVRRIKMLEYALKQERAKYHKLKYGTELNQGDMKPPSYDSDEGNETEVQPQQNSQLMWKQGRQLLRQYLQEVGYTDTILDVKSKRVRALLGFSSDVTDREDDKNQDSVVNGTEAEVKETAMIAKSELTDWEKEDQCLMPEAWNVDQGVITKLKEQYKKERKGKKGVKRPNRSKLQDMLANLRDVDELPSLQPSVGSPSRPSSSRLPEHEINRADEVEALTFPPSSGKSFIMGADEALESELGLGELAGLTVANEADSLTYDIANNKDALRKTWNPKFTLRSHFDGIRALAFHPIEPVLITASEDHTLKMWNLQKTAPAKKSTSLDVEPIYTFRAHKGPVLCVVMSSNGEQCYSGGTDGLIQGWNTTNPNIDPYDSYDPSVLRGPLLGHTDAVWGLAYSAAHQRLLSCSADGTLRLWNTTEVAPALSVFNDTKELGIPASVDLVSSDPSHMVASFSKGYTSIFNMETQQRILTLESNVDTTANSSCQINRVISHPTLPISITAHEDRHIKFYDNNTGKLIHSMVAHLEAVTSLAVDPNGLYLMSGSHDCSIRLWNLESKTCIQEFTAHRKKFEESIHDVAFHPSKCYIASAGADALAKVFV

B1: Mob3/phocein (natural protein, human (endogenous in HEK293), UniProt Q9Y3A3 1-225, looked up)
chain: MVMAEGTAVLRRNRPGTKAQDFYNWPDESFDEMDSTLAVQQYIQQNIRADCSNIDKILEPPEGQDEGVWKYEHLRQFCLELNGLAVKLQSECHPDTCTQMTATEQWIFLCAAHKTPKECPAIDYTRHTLDGAACLLNSNKYFPSRVSIKESSVAKLGSVCRRIYRIFSHAYFHHRQIFDEYENETFLCHRFTKFVMKYNLMSKDNLIVPILEEEVQNSVSGESEA
notes: source: endogenous, HEK293 lysate
For the molecule B1, the figures for the “percent of the wild-type level bound” value in experiment [1], in experiment [2] and in experiment [3] were 40 % of wild-type levels, ~40 % of wild-type level and 75 % of wild-type levels, respectively.
